How the values were obtained:
[1] = target: DS-Cav1, prefusion-stabilized form of the RSV fusion (F) glycoprotein (human respiratory syncytial virus | not stated); experiment: cryo-EM structure
[2] = target: DS-Cav1, prefusion-stabilized form of the RSV fusion (F) glycoprotein (human respiratory syncytial virus | not stated); experiment: crystal structure

**Q.** “DS-Cav1, prefusion-stabilized form of the RSV fusion (F) glycoprotein (natural protein)” was tested. Which stoichiometry N [1] did it give?
**A.** The stoichiometry N was 3.

**Q.** What about the stoichiometry N [2] of the same substance?
**A.** The stoichiometry N was 3.

Source: PMC8386734
